PMC2930068
Where two headings read alike, the source gives them in different places. Blank lines part the entries; values can stand above or below the substance they belong to.

Legend:
[1] = biological target: full-length importin-α5 with C-terminal Strep-tag (human) (UniProt P52294); experiment: SEC
STAT1 = STAT1 (UniProt P42224); experiment: sedimentation velocity analytical ultracentrifugation; conditions: reference: uSTAT1; sites Y701
[2] = biological target: importin α5, GST-tag removed (human) (UniProt P52294); experiment: AUC
[3] = biological target: GST-importin α5 (res. 1-538) (human) (UniProt P52294); experiment: SPR
[4] = biological target: GST-importin α5 (1-538) Tyr476Gly (human) (UniProt P52294); experiment: SPR
GST-importin α5 (1-538) Tyr476Gly (human), sequence (P52294 whole entry Y476G): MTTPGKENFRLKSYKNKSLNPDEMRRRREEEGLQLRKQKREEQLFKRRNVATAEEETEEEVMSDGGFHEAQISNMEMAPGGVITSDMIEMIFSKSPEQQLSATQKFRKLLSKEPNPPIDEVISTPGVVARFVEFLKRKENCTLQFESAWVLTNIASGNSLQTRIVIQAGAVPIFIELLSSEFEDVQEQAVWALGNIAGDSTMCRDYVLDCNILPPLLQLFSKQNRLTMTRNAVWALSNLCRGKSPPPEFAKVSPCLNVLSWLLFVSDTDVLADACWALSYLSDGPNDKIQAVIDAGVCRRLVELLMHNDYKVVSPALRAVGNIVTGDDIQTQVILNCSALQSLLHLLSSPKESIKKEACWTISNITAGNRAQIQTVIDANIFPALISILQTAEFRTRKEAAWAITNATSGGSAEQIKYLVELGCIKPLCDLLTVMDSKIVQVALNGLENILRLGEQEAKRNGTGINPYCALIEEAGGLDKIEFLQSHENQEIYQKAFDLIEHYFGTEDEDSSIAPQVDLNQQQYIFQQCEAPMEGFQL

[5] = biological target: GST-importin α5 (res. 1-538) (human) (UniProt P52294); experiment: SPR; remark: listed apart in the source
[6] = biological target: GST-importin α1/α5 (res. 1-446 of α1/449-538 of α5) (human) (UniProt P52292); experiment: SPR
[7] = biological target: GST-importin α5 (1-538) Tyr476Gly (human) (UniProt P52294); experiment: SPR; remark: listed apart in the source

phosphorylated-Tyr701 STAT1 (1-712), N-terminal 6-histidine tag, sequence (P42224 1-712): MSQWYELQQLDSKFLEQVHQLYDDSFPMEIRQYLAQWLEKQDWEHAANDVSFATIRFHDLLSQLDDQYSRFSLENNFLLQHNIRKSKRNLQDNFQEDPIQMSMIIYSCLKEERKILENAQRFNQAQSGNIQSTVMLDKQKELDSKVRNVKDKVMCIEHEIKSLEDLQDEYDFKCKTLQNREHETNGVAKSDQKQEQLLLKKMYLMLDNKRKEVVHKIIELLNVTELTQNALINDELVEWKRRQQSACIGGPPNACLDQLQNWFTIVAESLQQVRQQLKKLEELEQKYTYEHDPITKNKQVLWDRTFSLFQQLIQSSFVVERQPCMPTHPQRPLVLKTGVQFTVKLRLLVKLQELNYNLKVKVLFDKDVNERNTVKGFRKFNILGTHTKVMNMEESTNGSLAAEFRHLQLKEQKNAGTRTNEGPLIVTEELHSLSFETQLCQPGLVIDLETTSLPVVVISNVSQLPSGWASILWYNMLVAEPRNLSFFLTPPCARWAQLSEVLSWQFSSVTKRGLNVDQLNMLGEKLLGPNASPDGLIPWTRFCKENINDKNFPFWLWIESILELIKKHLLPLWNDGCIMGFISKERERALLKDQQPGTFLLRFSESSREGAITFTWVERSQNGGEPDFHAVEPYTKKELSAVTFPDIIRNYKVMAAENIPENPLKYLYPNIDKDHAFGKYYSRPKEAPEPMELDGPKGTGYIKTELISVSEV
STAT1 (from UniProt P42224) pSTAT1, sequence (P42224 whole entry, change not shown): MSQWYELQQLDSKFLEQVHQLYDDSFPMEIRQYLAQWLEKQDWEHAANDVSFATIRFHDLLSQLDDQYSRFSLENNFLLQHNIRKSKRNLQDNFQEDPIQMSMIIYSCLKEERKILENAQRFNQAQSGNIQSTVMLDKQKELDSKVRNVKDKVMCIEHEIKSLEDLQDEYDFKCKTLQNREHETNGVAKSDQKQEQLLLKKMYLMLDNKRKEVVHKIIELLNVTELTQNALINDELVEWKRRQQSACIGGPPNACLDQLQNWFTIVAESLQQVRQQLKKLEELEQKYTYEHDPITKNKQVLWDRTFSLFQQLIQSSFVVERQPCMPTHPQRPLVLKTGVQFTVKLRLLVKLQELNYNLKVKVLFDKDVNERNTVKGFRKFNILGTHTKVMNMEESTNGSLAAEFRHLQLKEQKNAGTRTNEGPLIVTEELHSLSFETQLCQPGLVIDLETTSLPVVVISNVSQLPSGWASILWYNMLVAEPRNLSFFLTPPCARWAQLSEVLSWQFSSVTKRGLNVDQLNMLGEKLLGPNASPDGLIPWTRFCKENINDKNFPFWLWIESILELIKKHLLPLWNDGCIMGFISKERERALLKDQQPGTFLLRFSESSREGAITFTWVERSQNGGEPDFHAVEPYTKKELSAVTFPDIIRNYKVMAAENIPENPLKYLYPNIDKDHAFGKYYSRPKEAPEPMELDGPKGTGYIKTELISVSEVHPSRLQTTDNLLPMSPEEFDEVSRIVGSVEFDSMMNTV
STAT1 (UniProt P42224), sequence (P42224 whole entry): as the sequence (P42224 whole entry, change not shown) above

stoichiometry N (pSTAT1 dimer per importin α5 molecule) [1]: 1
Substance: Strep-tagged phosphorylated-Tyr701 STAT1 (from UniProt P42224 1-750) (natural protein)

other: molecular weight (STAT1): same; reference ~180
Substance: STAT1 (from UniProt P42224) pSTAT1

stoichiometry N (pSTAT1 dimer per importin α5 molecule) [2]: 1
koff [3]: 0.0183 s⁻¹
Kd [4]: 4300 nM
koff [4]: 0.289 s⁻¹
kon [4]: 66600 M⁻¹ s⁻¹
Kd [5]: 191 nM
koff [5]: 0.0189 s⁻¹
kon [5]: 98800 M⁻¹ s⁻¹
Kd [6]: 542 nM
koff [7]: 289 s⁻¹
Substance: phosphorylated-Tyr701 STAT1 (1-712), N-terminal 6-histidine tag (from UniProt P42224-2 1-712) (natural protein)
